Test: label from the status in PepcDB records

Row | Sequence | protein production
1 | MATDAPPPSKEEPPSQEEHRLPSAEEFSEVQQSAEFAELRRSFRSFAFPLTVAFVAWYLLYVLLSNYAGGFMGTKLFGNINVAFVFGIAQFVTTFLIAWWYSRHAAAKLDPKAEAIKTRMEGGA | failed
2 | AIDHRIQYLAYREIKAAVETNKAKAGSVVVLDAHTGELLALANYPSFNPNNRSGVTPEMMRNRGVIDLFEPGSTMKPLSISLALEHGKANLNTVLDTHSYMIGPATIRDVSPQASLGILGIIQKSSNVGTSKLALLNSPEEFWKHYDALGFGRAPETGFPGEASGRLRDWHKWRPIEQATMSFGYGVSVSLIQMARAYTIFANDGVMLPVALYKTANPMPGKRVLSEKTAHEMRDLLIANSQPGGGAVGGRIIGYSIGGKSGTARKLEGRAYVANKHRALFMGFAPGHSPKVIVAVMIDEPSAGKYYGGAVSAPVFSQVAGGALRVLNIAPD | failed
3 | MGLVGLHSGTIDMEFIGVEDHGDEEGKQIAVSVISSGKNADKTEDPDSLIFTGFGGTDMYHGQPCNQKLERLNIPLEAAFRKKSIVRVVRCMKDEKRTNGNIYIYDGTYMITNRWEEEGQNGFIVFKFKLVREPDQKPAFGIWKSIQNWRNGLSIRPGLILEDLSNGAENLKVCLVNEVDKENGPALFRYVTSLIHEVINNIPSMVDRCACGRRSCGSKHVFREKLSVSSSLVISAKKSGNVARFMNHSCSPNVFWQSIAREQNGLWCLYIGFFAMKHIPPLTELRYDYGKSRGGGKKMCLCRTKKCCGSFG | failed
4 | LAELFEKAAAHLQGLIQVASREQLLYLYARYKQVKVGNCNTPKPSFFDFEGKQKWEAWKALGDSSPSQAMQEYIAVVKKLDPGWNPQIPEKKGKEA | not failed
5 | MTTLGIVSDTHGYFHPNLADDLSGVDRILHAGDVGDPAILDGLEAVAPVTAVWGNIDDASLRRRLAEHERFTVAGLDVWMTHIAGRPGRWQDGMGTKLEATPPDVLVCGHSHILQVERVAALDDMLYVNPGAAGKQGFHQTKTCLRLAVEDGRATEAAVVHLDPDASPAQAPDP | failed
6 | MESITQIYRIGYGPSSSHTIGPRRAAEMFLDRNPRATSFRVTLYGSLAATGKGHLTDAAILAVLEAKAPTEIVWKPEIFQNFHPNGMLFESFDKEGKQLDDWLIYSIGGGVLANEHFNEQ | not failed
7 | MALPIIVKWGGQEYSVTTLSEDDTVLDLKQFLKTLTGVLPERQKLLGLKVKGKPAENDVKLGALKLKPNTKIMMMGTREESLEDVLGPPPDN | failed
8 | MATATTTKTKTKATKKTRAKKATKKRATPKKNLVIVESPAKAKTIEKYLGRNYKVVASVGHIRDLKKSSMSIDFENNYEPQYINIRGKGPLIKELKKEAKKAKKVFLASDPDREGEAISWHLSHILGLEPEDKNRVVFNEITKDAVKNAFAEPRAIDMDLVDAQQARRVLDRIVGYSISPLLWKKVKKGLSAGRVQSVALKLIIDRENEIKAFKPEEYWTIDGAFKKGAKKFQASFYGLDGKKLKLNNNDDVKDVLSRIISDDFNVDKVEKKERRRNAPLPYTTSSLQQDAANKINFRTRKTMMVAQQLYEGINLGSGAQGLITYMRTDSTRISPVAQNQAAEFITERYGSKYSKHGSKVKNSSAAQDAHEAIRPSNVFQTPESIAKYLDKDQLKLYTLIWNRFVASQMTAAVFDTMKVTLSQNGVIFTANGSQIKFDGYMAVYNDSDKNKMLPEMAEGDTIKKVVTTPEQHFTQTPARYSEATLIKTLEENGVGRPSTYAPTLDVIQRRYYVKLVAKRFEPTELGEIVNSLIVEFFPDIVDVKFTAEMEAKLDKVEIGKEQWQKVIDEFFKPFQKELEKAEEGIEKIQIKDEPAGFDCDLCGHPMVIKLGRYGKFYACSNFPDCHNTKAITKEIGVTCPTCGQGQVIERKTKRNRVFYGCDRYPDCEFTSWDIPIGRNCPKSGDYLVEKKVRGGGKQVICSNEECDYKESVIK | failed
9 | MDYSQYHVEQTQEITELVTRTFSKSEGVDEGTLIGALIKDLFATTDSDDMFIFVAKDNGKIVGSIFFTRLTFEIDTTAFLLCPVVIDTEYQNKGVGQTLINHGLEVLKQEGVELVFTYGEPKFYERVGFEIVSEEQFKSPIPLSYLYSWLAQSLNDEVLTYIPGRSKCVAALNNLRLW | failed
10 | MTEEFNESMINDIKEGDKVTGEVQQVEDKQVVVHINGGKFNGIIPISQLSTHHIENPSEVVKVGDEVEAYVTKIEFDEENDTGAYILSKRQLETEKSYEYLQEKLDNDEVIEAEVTEVVKGGLVVDVGQRGFVPASLISTDFIEDFSVFDGQTIRIKVEELDPENNRVILSRKAVEQLENDAKKASILDSLNEGDVIDGKVARLTNFGAFINIGGVDGLVHVSELSHGTCSNTRRSCVSRLEHHHHHH | not failed
11 | MIEFDNLTYLHGKPQGTGLLKANPEDFVVVEDLGFEPDGEGEHILVRILKNGCNTRFVADALAKFLKIHAREVSFAGQKDKHAVTEQWLCARVPGKEMPDLSAFQLEGCQVLEYARHKRKLRLGALKGNAFTLVLREVSNRDDVEQRLIDICVKGVPNYFGAQRFGIGGSNLQGAQRWAQTNTPVRDRNKRSFWLSAARSALFNQIVAERLKKADVNQVVDGDALQLAGRGSWFVATTEELAELQRRVNDKELMITAALPGSGEWGTQREALAFEQAAVAAETELQALLVREKVEAARRAMLLYPQQLSWNWWDDVTVEIRFWLPAGSFATSVVRELINTTGDYAHIAE | not failed
12 | MSIFANLKDRMKAVFQPRSDILASQDAESTPGSRDALFAIEELSRAVRNDPDAVEIYLALGNLYRLRGDIDRAVQIRSSLIVRPGLDNRFRARAYLELGRDYRRGGFVDRALQAFDEAQRLGAERDAIILELAHLHADSGSFDLAAEQFGRVGHKPAQAHYLVRHAEDLCGQGEFAEAVKTLTRAVKVYPGSIEAWTTRIAMHIRSGEWRKAKSMLREAMQSVSPDRRFLVFDGILAITPPENAPDSVQQFEQNRCECVLPVISEQEPELLLHYYGALFLLRCGEREQAGNWLAKAMVLRPDFWAARLELLGISMDRQQLSPVFKGQLEYFVSQARHVKRFVCQNCGLRREQAFYLCPRCRSWHSATFRLSLQD | failed
13 | MSLRDFGLLVLICLIWAGSNIISKLVVAHWGVPPLYYAAVRFALVAALTLPWLLPAPRPTWRMVLVGLLMGGGNFALLFMGFQTASPSAASVVIQVGVPFTTLLSVLILGEKIRWRRGLGIALTLLGAVVVMWSPKGIELSAGLWLIVAAAFTGSLGAVMMKQIEGVKPLQFQAWVGFSSVWPLAAMSAFMEPGQVAAGFAAGWPFVAAVVFSAVVVSILAHTAYYGLIQRYEANLIAPLTLMTPLFTIGMGVVVTNDHFDLRMGIGAALALLGVLIIALRRNQVMPLLTSLRSRLQ | failed
14 | MAEAVLENVNVPAVVSKDECIYCFESPYNEPLALNASPKHSLNICLNCFQATCNRHVPLHIRVTEYACDTIHSNYLTIAKVEKPKQENVEENNNNKKIKLQVIETSEDDTHNTIWSLQRFNGENVPRTVLSKSTDSDISSTALEKIEKILKAKSQDFEDKKNSWVLEISTCPHTENFQIPSKPENTVNLNQCSSCDLTQNLWLCLHCGNIGCGREQIGIDGHSHALDHYRSNNNHPLAIKLGSLSSSTYDLYCYACDDETRFPDNVNLGSALQIYGINIQEKIADEKTLVQLQVEQNENWQFRMVDSSGKEFEKLSASKNYGCGLINLGNSCYLNSVIQSLVNGGVPNWSLDFLGSKFPLDVVYPDNNLKCQWIKLLNAMKCEPELYPNGIKPTTFKKCIGQNHQEFSSNRQQDAMEFLTFLLDLLDKKFFSSSSSGIPNPNDLVRFMMEDRLQCNICGKVKYSYEPTEAIQIPLEENDEPQDMLERIKAYFEGQTIEFKCANCKEKVTANKKPGFKSLPQTLILNPIRIRLQNWIPVKTSNELSLPGLIDRDDMLDVSSYLSQGFDPQTENLLPDEDENRSSFTPNQCSISQLIEMGFTQNASVRALFNTGNQDAESAMNWLFQHMDDPDLNDPFVPPPNVPKKDKREVDEVSLTSMLSMGLNPNLCRKALILNNGDVNRSVEWVFNNMDDDGTFPEPEVPNEEQQQKKDLGYSTAKPYALTAVICHKGNSVHSGHYVVFIRKLVADKWKWVLYNDEKLVAADSIEDMKKNGYIYFYTRC | failed
15 | MLTFAAAVLFLIITPGPGVMTTAGFGAAYGFRASLSYVVGLFIGTNLVMLAVMTGLAAVLLSVPGLRLVLLVLSVGYLLYLAALIALAGARVAFIEARSAPGVMRGVLLQAINPKAYAVNTSLITGFNYAPDAFLFEMFTKALILNAIWIPIHLAWLWAGAALHRLNLPHSTQRAINILMALSMLGVVALALWSASRVKA | failed
16 | MRREKTMDTLIRSIMIKSKRKMDAKVAQFGLTTQQARVLGFLNDNAANEIIQKDLQRIFQTRGASITSLIQGLEKKQLISRKPSLRDGREKVVTLTKEGKDIVDEFNASFPREDDKAKKILSADEYKTFIELLSKIDDQTD | failed
17 | MKEKLWTTTFVVNMLLNFIFYLVFYLPTVVIGTMAMERYHASASIAGILSGIFIVGGFIARLWAGNNMKRLGAKKLLYIGTLIYFLLTFAYFFVHSVVLLLILRLVHGLGFGIAATASGTLAGAIVPSSRRGEGIGYYALSVTLSSAVGPFLSMFLYRTSGFYSLIWLSALLLFIALVGIFFIHVEKTTDSSNSVDNKVHKKFAWSNYFEKEALPISLIAFLIGISYSSILSFMDAYARNIHLSEAASFFFLVYAITVLLSRPITGRVFDGFGDNFVMYPTYLFFALGLLLIGFAHSGWMLLLAAIFIGLGYGSFSPFGQAIAIRNSEAHRLGITTSTFFGFMDMGVGFGPFILGMFMPLLGYRNLYFASAILALLIAVIYHFVHGRHAKREN | failed
18 | MVLTKKYDKLGHILLNVFIVFCTFEVFIKGVLTLQQESSSGVNAIKIGILLFMIFAIVLKGKIKGMTTKIKGIMFIYLVFFIVLGLKILSINQMSDITGWLSDNNNLNYIFSFVCFIIILNIDIKRESVINTLIVSSTVVMVISFIFFIKNNYYGLAAPDIIQAYSMGFLNKTRMLSIFASPNHAGLYFVMVYLIVDFRGQKNLAMLFKLYKFLLIVCIMLTLSRTAIGILLLYIIIKIIRSKNAKSVVRFGIISLMVVLIGITLWIAISKYNVYFFSASYIKADNRWIKWQVAIEYIKKYWAIGAPFNIKVQMYAYVNSAITSVEFSDNLFLEIASRFGVPLIACIFIFMIKNLRRAFNEKKITDITKILVFIISSITTGSIHFTIPMILFIVYCDKFD | failed
19 | MARGPPRALASTRSPSTHMTAISNPDSEDLHIIIAGAGRVGHRTARVLRDQGHEAYLIDKDPDIVEDARQALGATVIEGDATDPKVLAQADPERADVLAALTETGATNFAICAVVKHLTGDIRTVARIERPDQLDEEGTFFDRVVYPERAGAKSAVNQILTGDTRVFEDVGGDLDVAEVQVAPEAPAAGKQLDAAALPDQSHVVFDVTNDEVPQPSTELVPGHRYLIAAAPGVAREARRRLVG | failed
20 | MSGVTSEPIAMDATRFQHTPYYCEENVYLLCKTLCENGVAEATCSDLFVVFISNEKKQVPLWHQKASTRADGVVLWDYHVICVQRKKESDSEPLVWDLDSTLPFPSPLASYVTETIQPSFQLFAEYQRFFRIVHAPLFFKHFASDRRHMKEPDGSWTAQPPPYEPIVAQDGILHNLSEYIAMSGADTLSSLDPETVTAAISQKLGVVVSHTQLQDLFTKLP | failed
21 | LPPKKFGNPGERLRKKKWDLSELPKFEKNFYVEHPEVARLTPYEVDELRRKKEITVRGGDVCPKPVFAFHHANFPQYVMDVLMDQHFTEPTPIQCQGFPLALSGRDMVGIAQTGSGKTLAYLLPAIVHINHQPYLERGDGPICLVLAPTRELAQQVQQVADDYGKCSRLKSTCIYGGAPKGPQIRDLERGVEICIATPGRLIDFLESGKTNLRRCTYLVLDEADRMLDMGFEPQIRKIVDQIRPDRQTLMWSATWPKEVRQLAEDFLRDYTQINVGNLELSANHNILQIVDVCMESEKDHKLIQLMEEIMAEKENKTIIFVETK | failed
